Test results taken from paper PMC8908270, “Multimodal regulation of myosin VI ensemble transport by cargo adaptor protein GIPC” (The Journal of Biological Chemistry, 2022).

B1: Myosin VI FL-SNAP (natural protein, human, UniProt Q9UM54 1-1294, looked up)
chain: MEDGKPVWAPHPTDGFQMGNIVDIGPDSLTIEPLNQKGKTFLALINQVFPAEEDSKKDVEDNCSLMYLNEATLLHNIKVRYSKDRIYTYVANILIAVNPYFDIPKIYSSEAIKSYQGKSLGTRPPHVFAIADKAFRDMKVLKMSQSIIVSGESGAGKTENTKFVLRYLTESYGTGQDIDDRIVEANPLLEAFGNAKTVRNNNSSRFGKFVEIHFNEKSSVVGGFVSHYLLEKSRICVQGKEERNYHIFYRLCAGASEDIREKLHLSSPDNFRYLNRGCTRYFANKETDKQILQNRKSPEYLKAGSMKDPLLDDHGDFIRMCTAMKKIGLDDEEKLDLFRVVAGVLHLGNIDFEEAGSTSGGCNLKNKSAQSLEYCAELLGLDQDDLRVSLTTRVMLTTAGGTKGTVIKVPLKVEQANNARDALAKTVYSHLFDHVVNRVNQCFPFETSSYFIGVLDIAGFEYFEHNSFEQFCINYCNEKLQQFFNERILKEEQELYQKEGLGVNEVHYVDNQDCIDLIEAKLVGILDILDEENRLPQPSDQHFTSAVHQKHKDHFRLTIPRKSKLAVHRNIRDDEGFIIRHFAGAVCYETTQFVEKNNDALHMSLESLICESRDKFIRELFESSTNNNKDTKQKAGKLSFISVGNKFKTQLNLLLDKLRSTGASFIRCIKPNLKMTSHHFEGAQILSQLQCSGMVSVLDLMQGGYPSRASFHELYNMYKKYMPDKLARLDPRLFCKALFKALGLNENDYKFGLTKVFFRPGKFAEFDQIMKSDPDHLAELVKRVNHWLTCSRWKKVQWCSLSVIKLKNKIKYRAEACIKMQKTIRMWLCKRRHKPRIDGLVKVGTLKKRLDKFNEVVSVLKDGKPEMNKQIKNLEISIDTLMAKIKSTMMTQEQIQKEYDALVKSSEELLSALQKKKQQEEEAERLRRIQEEMEKERKRREEDEKRRRKEEEERRMKLEMEAKRKQEEEERKKREDDEKRIQAEVEAQLARQKEEESQQQAVLEQERRDRELALRIAQSEAELISDEAQADLALRRSLDSYPVSKNDGTRPKMTPEQMAKEMSEFLSRGPAVLATKAAAGTKKYDLSKWKYAELRDTINTSCDIELLAACREEFHRRLKVYHAWKSKNKKRNTETEQRAPKSVTDYDFAPFLNNSPQQNPAAQIPARQREIEMNRQQRFFRIPFIRPADQYKDPQSKKKGWWYAHFDGPWIARQMELHPDKPPILLVAGKDDMEMCELNLEETGLTRKRGAEILPRQFEEIWERCGGIQYLQNAIESRQARPTYATAMLQSLLK
modifications: Cy3-conjugated (single-molecule TIRF assay); benzylguanine-labeled DNA oligo on the SNAP tag (nanotube and origami assays)
B2: GIPC MIR, C-terminal SNAP-tagged (domain or fragment, human, UniProt O14908 261-333, looked up)
chain: EEKAIEKVDDLLESYMGIRDTELAATMVELGKDKRNPDELAEALDERLGDFAFPDEFVFDVWGAIGDAKVGRY
modifications: benzylguanine-labeled DNA oligo on the SNAP tag (DNA origami scaffold assay)

What was measured:
[1] = target: mCerulean (mCer)-tagged myosin VI CBD (human) (UniProt Q9UM54); assay: FRET or BRET; bimolecular FRET in solution; CBD-mCer held constant at 30 nM, increasing GIPC MIR–mCit titrated; excitation 430 nm; ΔFRET fit to a hyperbolic dose–response; three protein preparations
[2] = target: B2; assay: cell-based or functional assay
Myosin VI FL-SNAP = target: B1; assay: cell-based or functional assay

mCitrine (mCit)-tagged GIPC MIR (from UniProt O14908 261-333) (domain or fragment)
Kd [1]: 120 nM

B1
speed of DNA origami scaffolds on single actin filaments, myosin VI recruited through GIPC MIR against direct attachment [2]: 2.3 fold

B2
actin gliding speed in the DNA nanotube assay (Myosin VI FL-SNAP patterned at 14 or 28 nm spacing), with 2 μM GIPC MIR against without (Myosin VI FL-SNAP): 2.5 fold
